Experiments:
Aβ42 fibrils = Aβ42 fibrils (UniProt P05067)
synthetic Aβ42 peptide = synthetic Aβ42 peptide (UniProt P05067)
Aβ42 oligomers = Aβ42 oligomers (UniProt P05067)
[1] = biological target: protective protein/cathepsin A (PPCA) (UniProt P10619)
protective protein/cathepsin A (PPCA), sequence (P10619 29-480): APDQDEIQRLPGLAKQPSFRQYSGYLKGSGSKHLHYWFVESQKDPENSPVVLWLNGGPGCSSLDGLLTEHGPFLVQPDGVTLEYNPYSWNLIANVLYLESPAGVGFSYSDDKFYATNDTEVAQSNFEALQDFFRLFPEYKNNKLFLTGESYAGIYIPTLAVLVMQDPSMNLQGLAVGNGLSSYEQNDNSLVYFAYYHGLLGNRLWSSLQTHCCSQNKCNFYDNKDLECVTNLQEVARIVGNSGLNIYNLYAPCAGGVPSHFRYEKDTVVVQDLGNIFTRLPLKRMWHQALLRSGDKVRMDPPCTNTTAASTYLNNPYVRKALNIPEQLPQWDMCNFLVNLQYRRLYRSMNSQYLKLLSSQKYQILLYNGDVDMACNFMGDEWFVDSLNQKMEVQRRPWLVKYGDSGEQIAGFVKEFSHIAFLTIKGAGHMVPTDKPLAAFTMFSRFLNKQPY

cathepsin D, sequence (chain, as listed by the source): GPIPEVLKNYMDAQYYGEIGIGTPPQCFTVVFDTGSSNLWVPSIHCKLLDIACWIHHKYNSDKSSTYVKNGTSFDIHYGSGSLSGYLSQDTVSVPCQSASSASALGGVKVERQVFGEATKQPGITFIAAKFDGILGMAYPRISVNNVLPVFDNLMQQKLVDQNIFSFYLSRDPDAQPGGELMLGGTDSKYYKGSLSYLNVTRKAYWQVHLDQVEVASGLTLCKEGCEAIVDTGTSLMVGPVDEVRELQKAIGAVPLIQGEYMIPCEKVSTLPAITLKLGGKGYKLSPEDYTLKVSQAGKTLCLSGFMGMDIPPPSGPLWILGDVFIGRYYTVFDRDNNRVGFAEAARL
synthetic Aβ42 peptide, sequence (P05067 whole entry, looked up, tested part not stated): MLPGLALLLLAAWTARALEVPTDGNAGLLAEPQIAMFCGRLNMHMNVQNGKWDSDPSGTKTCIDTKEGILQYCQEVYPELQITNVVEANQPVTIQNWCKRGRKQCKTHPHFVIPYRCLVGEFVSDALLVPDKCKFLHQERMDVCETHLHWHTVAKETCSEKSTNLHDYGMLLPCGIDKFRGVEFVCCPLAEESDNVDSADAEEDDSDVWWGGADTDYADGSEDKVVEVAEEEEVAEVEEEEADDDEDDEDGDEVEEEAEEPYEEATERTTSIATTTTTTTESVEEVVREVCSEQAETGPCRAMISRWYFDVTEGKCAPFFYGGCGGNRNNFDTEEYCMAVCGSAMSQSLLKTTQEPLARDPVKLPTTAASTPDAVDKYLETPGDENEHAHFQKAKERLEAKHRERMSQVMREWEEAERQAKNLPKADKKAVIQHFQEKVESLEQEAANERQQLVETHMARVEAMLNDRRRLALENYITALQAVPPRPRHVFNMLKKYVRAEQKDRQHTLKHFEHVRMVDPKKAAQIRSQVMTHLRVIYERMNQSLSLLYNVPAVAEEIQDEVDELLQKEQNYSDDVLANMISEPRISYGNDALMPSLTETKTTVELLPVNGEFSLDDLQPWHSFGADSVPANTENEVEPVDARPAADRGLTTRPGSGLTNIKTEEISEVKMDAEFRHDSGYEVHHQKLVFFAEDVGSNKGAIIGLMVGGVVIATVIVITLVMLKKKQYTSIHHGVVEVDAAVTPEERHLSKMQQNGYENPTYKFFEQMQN
Aβ42 fibrils, sequence (P05067 whole entry, looked up): as the sequence (P05067 whole entry, looked up, tested part not stated) above
Aβ42 oligomers, sequence (P05067 whole entry, looked up): as the sequence (P05067 whole entry, looked up, tested part not stated) above
cathepsin L, sequence (chain, as listed by the source): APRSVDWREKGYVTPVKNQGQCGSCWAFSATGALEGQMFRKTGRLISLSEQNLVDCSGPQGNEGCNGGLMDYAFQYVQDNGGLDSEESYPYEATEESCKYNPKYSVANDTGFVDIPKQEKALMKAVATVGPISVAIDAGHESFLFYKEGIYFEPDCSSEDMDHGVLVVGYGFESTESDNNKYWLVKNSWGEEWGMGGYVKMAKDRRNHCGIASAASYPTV

| Substance | western blot (E610) of day 9 Aβ42 fibrils after overnight treatment with 90 ng enzyme (Aβ42 fibrils) | western blot of Aβ42 treated with cathepsin B (synthetic Aβ42 peptide) | western blot (A11) of day 9 Aβ42 oligomers after overnight treatment with 90 ng enzyme (Aβ42 oligomers) | THT assay and western blot of Aβ42 treated with cathepsin D (synthetic Aβ42 peptide) | activation of cathepsin A (enzyme activity) [1] |
| --- | --- | --- | --- | --- | --- |
| cathepsin B | resulted in weak reduction/degradation of the fibril smear (line 5 compared to line 2) | cathepsin B prevents aggregation of low molecular weight Aβ42 species and degrades Aβ42 monomers in a time dependent manner | did not reveal changes in intensity or size of oligomer band (lines 5, 6) |  |  |
| cathepsin D | did not result in visible reduction/degradation of fibril smear or oligomer bands |  | did not reveal changes in intensity or size of oligomer band (lines 5, 6) | strong prevention of aggregation of Aβ42 species, measured by THT; complete elimination Aβ42 monomers |  |
| cathepsin L |  |  |  |  | Activation of 90 ng cathepsin A by cathepsin L |

Source: US20170119861
